We go through 3 molecules from patent US20230374157A1 (SYSTIMMUNE, published 2023).

The target of assay [1] is T1, His-tagged human EGFR extracellular domain (expressed and purified in-house) (human, UniProt P00533 25-645).
T1 construct: extracellular domain; Monomeric, in solution; also called EGFR (purified in-house); not shown: His tag
The assay is described as follows: BLI, antibody on AHC tips, monomeric EGFR ECD in solution, 1:1 fit.

Assay [2] deals with T2, His-tagged human HER3 extracellular domain (Acro ER3-H5223) (human, UniProt P21860 20-643).
T2 construct: extracellular domain; Monomeric, in solution; not shown: His tag
Kind of assay: BLI, antibody on AHC tips, monomeric HER3 ECD in solution, 1:1 fit. (In general: Biolayer interferometry detects binding as a change in optical thickness at a sensor tip.)

In assay [3] the target is T3, biotinylated human EGFR extracellular domain (Acro EGF-H82E3) (human, UniProt P00533 25-645, biotinylated (site not stated)).
T3 construct: extracellular domain; Loaded onto streptavidin (SA) sensors; also called immobilized EGFR
The assay is described as follows: BLI avidity format, biotinylated EGFR ECD on SA sensors, antibody in solution, 1:1 fit.

Assay [4] concerns the target T4, human His-tagged HER3 extracellular domain (in-house expressed) (human, UniProt P21860 20-643).
T4 construct: extracellular domain; also called HER3 ECD (in-house expressed); not shown: His tag
The assay is described as follows: BLI sandwich assay, antibody held on immobilized biotinylated EGFR, 500 nM HER3 ECD in solution, 1:1 fit.

Assay [5] deals with T4, human His-tagged HER3 extracellular …. Kind of assay: BLI sandwich assay, antibody held on immobilized EGFR, HER3 ECD in solution.
Assay [6] concerns the target T2, His-tagged human HER3 extracellular …. Kind of assay: BLI (Octet), antibody captured on AHC sensors; tandem: 100 nM EGFR 720 s, then 100 nM EGFR + 400 nM HER3 720 s, then buffer; EGFR+HER3 step.

B1: SI-1C5 (nimotuzumab-based anti-EGFR monoclonal antibody) (antibody, V domains shown)
VH: QVQLQQSGAEVKKPGSSVKVSCKASGYTFTNYYIYWVRQAPGQGLEWIGGINPTSGGSNFNEKFKTRVTITVDESTNTAYMELSSLRSEDTAFYFCARQGLWFDSDGRGFDFWGQGSTVTVSS
VL: DIQMTQSPSSLSASVGDRVTITCRSSQNIVHSNGNTYLDWYQQTPGKAPKLLIYKVSNRFSGVPSRFSGSGSGTDFTFTISSLQPEDIATYYCFQYSHVPWTFGQGTKLQITR
Broadly, the koff is the first-order rate constant of dissociation. A lower koff goes with slow dissociation. In general, kon refers to the second-order rate constant of association. Low values mean slow association, high ones fast association. In assay [1], B1 came in with a Kd of 15.8 nM, an off-rate constant (koff) of 0.00178 s⁻¹ and a kon of 113000 M⁻¹ s⁻¹.

B2: SI-71X14, bispecific tetravalent anti-EGFR x HER3 antibody (humanized cetuximab IgG with MM-111 anti-HER3 scFv at the C-terminus of each heavy chain) (bispecific antibody)
heavy: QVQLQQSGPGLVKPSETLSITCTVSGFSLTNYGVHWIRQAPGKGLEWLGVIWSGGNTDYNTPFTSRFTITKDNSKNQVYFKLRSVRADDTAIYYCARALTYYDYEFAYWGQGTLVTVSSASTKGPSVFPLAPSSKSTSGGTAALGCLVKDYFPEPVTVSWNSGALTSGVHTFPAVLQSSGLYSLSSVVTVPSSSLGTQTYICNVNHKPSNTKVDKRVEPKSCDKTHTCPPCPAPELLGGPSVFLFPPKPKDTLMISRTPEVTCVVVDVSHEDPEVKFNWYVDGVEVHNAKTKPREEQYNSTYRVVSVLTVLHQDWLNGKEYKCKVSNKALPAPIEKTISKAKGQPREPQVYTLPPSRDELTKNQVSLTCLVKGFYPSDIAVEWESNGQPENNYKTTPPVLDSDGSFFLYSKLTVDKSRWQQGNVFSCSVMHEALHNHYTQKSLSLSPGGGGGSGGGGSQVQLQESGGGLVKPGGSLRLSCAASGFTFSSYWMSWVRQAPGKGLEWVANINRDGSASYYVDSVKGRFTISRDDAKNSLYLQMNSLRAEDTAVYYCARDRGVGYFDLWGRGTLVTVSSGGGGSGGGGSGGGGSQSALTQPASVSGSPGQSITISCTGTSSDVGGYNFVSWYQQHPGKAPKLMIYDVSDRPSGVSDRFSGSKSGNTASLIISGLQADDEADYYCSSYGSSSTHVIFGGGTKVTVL
light: EIVLTQSPSTLSVSPGERATFSCRASQSIGTNIHWYQQKPGKPPRLLIKYASESISGIPDRFSGSGSGTEFTLTISSVQSEDFAVYYCQQNNNWPTTFGPGTKLTVLRTVAAPSVFIFPPSDEQLKSGTASVVCLLNNFYPREAKVQWKVDNALQSGNSQESVTEQDSKDSTYSLSSTLTLSKADYEKHKVYACEVTHQGLSSPVTKSFNRGEC
notes: VH position 85 (Kabat) is D instead of cetuximab's N
For the molecule B2, the Kd was 4.61 nM in assay [1], 117 nM in assay [2], less than 0.001 nM in assay [3] and 922 nM in assay [4]. In addition, the dissociation rate constant (koff) in assay [1] was 0.00122 s⁻¹; in assay [2], 0.0308 s⁻¹; in assay [3], less than 1e-07 s⁻¹; in assay [4], 0.07 s⁻¹. In addition, the association rate constant (kon) in assay [1] came to 264000 M⁻¹ s⁻¹; in assay [2] it was 265000 M⁻¹ s⁻¹; in assay [3] it was 353000 M⁻¹ s⁻¹; in assay [4] it was 75900 M⁻¹ s⁻¹.

B3: SI-71M1, humanized cetuximab monoclonal antibody (antibody, human IgG1, kappa, V domains shown)
VH: QVQLQQSGPGLVKPSETLSITCTVSGFSLTNYGVHWIRQAPGKGLEWLGVIWSGGNTDYNTPFTSRFTITKDNSKNQVYFKLRSVRADDTAIYYCARALTYYDYEFAYWGQGTLVTVSS
VL: EIVLTQSPSTLSVSPGERATFSCRASQSIGTNIHWYQQKPGKPPRLLIKYASESISGIPDRFSGSGSGTEFTLTISSVQSEDFAVYYCQQNNNWPTTFGPGTKLTVLR
notes: also called Hu-Cetuximab; humanized cetuximab mAb
As to B3, the Kd in assay [1] is 4.76 nM; in assay [3], less than 0.001 nM. The values for the off-rate (koff) in assay [1] and in assay [3] were 0.0013 s⁻¹ and less than 1e-07 s⁻¹, respectively. For the same molecule, the kon in assay [1] worked out at 272000 M⁻¹ s⁻¹; in assay [3] it was 466000 M⁻¹ s⁻¹. Moreover, the binding result in assay [5] was “no binding (tested: 500 nM)”; in assay [6] it was “no binding (tested: 400 nM)”.
